This note sets out measurements from patent US20040266687A1, “Compositions and methods comprising protein activated receptor antagonists” (priority 2002, published 2004).

In experiment [1] the target is T1, PAR-2 (Homo sapiens, UniProt P55085).
T1 construct: endogenous in cells; host or cells: HUVEC or HT29 colon carcinoma cells
T1 sequence (P55085 26-397): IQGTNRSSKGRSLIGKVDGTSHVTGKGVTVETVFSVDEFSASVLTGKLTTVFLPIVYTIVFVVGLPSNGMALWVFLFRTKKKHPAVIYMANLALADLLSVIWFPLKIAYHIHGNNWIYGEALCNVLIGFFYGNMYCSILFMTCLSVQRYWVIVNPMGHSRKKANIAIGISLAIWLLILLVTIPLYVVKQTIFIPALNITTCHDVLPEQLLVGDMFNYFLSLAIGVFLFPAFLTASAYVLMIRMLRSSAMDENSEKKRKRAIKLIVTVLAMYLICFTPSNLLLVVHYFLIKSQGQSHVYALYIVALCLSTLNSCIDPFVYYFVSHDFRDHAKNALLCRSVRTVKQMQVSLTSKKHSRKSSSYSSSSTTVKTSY
Kind of experiment: Inhibition of P2AP (SLIGKV)-stimulated PAR-2 signaling in cells pretreated with antagonist. Format: cell-based. Conditions: result in words; cells pretreated with the substance, then P2AP. As for the experimental part:
(§1) Confluent HUVECs or HT29 colon carcinoma cells were loaded for 30-60 minutes with the fluorescent dye Fluo-4. Final concentration 4 uM Fluo-4, 0.02% pluronic acid in physiological buffer. Cells were then washed with assay buffer, (HBSS containing 1 mM CaCl2, 1 mM MgSO4, and 2.5 mM probenecid). Cells were stimulated with various doses of PAR-2 activating peptide, PAR-1 activating peptide or ATP.
(§2) Fluorescence was monitored using a Wallac 1470 fluorescent plate reader. (See Al-ani et. al Journal of Pharmacology and Experimental Therapeutics 290:2, 753-760)
In order to assess the potential of peptides selected above to block PAR-2 signaling, cells were pretreated with potential antagonist peptides for a predetermined amount of time and were subsequently treated with P2AP. Methods and protocols used were the same as those described in Example 1.

The test system of experiment [2] is ATP signaling (G-protein coupled receptors). Description: Activation study with ATP on cells pretreated with antagonist. Format: cell-based. Conditions: cells pretreated with the substance. As for the experimental part:
as §1, §2
(§3) Both of these molecules signal through G-protein coupled receptors, and PAR-1 is very highly homologous to PAR-2, to the degree that the PAR-1 agonist peptide can signal through PAR-2 at high concentrations.

Another experiment has as its target T2, PAR-1 (Homo sapiens, UniProt P25116).
T2 construct: endogenous in cells; host or cells: HUVEC or HT29 colon carcinoma cells
T2 sequence (P25116 22-425): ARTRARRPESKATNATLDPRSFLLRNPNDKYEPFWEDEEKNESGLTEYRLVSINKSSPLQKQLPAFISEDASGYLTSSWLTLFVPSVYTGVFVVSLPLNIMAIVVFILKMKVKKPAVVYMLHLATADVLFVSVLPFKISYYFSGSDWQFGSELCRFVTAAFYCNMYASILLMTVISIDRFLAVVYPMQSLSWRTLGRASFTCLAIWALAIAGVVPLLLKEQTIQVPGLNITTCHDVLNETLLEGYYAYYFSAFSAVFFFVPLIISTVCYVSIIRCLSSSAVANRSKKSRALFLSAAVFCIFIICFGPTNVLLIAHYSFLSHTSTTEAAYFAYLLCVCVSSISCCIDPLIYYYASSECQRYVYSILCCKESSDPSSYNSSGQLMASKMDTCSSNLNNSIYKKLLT
Description: Activation study with PAR-1 activation peptide SFLLRN on cells pretreated with antagonist. The experiment is classed as cell-based. As to conditions: cells pretreated with the substance. As for the experimental part:
as §1, §2, §3

A further experiment has as its system Lewis lung carcinoma. Description: Lewis lung carcinoma (LLC) experimental metastatic model. The experiment is classed as in vivo, mice. As to conditions: metastatic tumor growth studies, FIG. 16. As for the experimental part: In this tumor growth model, treatments were initiated on day 3 post inoculation, after tumor cells had homed to the lung, and started growing. […] At a dose of 4 mg/day tumor growth was inhibited by 75%. […] C57/B16 mice were injected i.v. with Lewis lung carcinoma. 3 days later, treatment of lung tumors was started with i.p. LIGK (SEQ ID NO:1) for 11 days.

Experiment [3] can be described thus: Arthritis in mice (anti-collagen II antibody plus LPS), foot thickness. The experiment is classed as in vivo. As to conditions: 200 mg/kg/day i.p. for 7 days, Balb/c mice, FIG. 19. As for the experimental part: On day 0, Balb/c mice were injected IV with the 1 -2 mg 1B11 monoclonal anti-collagen II antibody. On day 1, animals were injected i.p with 20 ug LPS, and treatment with PAR-2 antagonists (200 mg/kg/day i.p). for 7 days is initiated. After treatment was completed, disease is quantified by measuring the thickness (swelling) in both feet of the mouse. This was compared to untreated mice. (p<0.05 vs. vehicle control)

Experiment [4] has as its target T1, PAR-2. Kind of experiment: PAR signalling activity: calcium mobilization (Fluo-4) in response to peptides. The experiment is classed as cell-based. Conditions: result in words, FIG. 4A-4C. As for the experimental part:
as §1, §2
Calcium mobilization curves of the PAR-2 agonist SLIGKV (SEQ ID NO:25) compared with two truncated molecules LIGK (SEQ ID NO:1) and LIGKV (SEQ ID NO:2) are provided in FIG. 4A. […] Similar studies were performed on alanine substituted SLIGKV (SEQ ID NO:25) peptides (FIGS. 4B and 4C).

Experiment [5] addresses T3, Proteinase activated receptor-2 (PAR-2) (UniProt P55085 37-397, limits assumed).
T3 sequence (looked up): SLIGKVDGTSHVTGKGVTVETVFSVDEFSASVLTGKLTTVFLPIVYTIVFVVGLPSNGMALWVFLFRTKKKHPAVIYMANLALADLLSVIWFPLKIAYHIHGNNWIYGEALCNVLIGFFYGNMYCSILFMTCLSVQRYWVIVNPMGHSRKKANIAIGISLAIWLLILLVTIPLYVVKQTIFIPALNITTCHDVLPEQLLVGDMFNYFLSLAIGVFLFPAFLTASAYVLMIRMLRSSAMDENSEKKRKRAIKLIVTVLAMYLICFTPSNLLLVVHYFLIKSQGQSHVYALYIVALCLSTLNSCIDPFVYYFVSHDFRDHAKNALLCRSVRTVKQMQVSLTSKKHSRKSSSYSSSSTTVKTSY
Kind of experiment: cell-based or functional assay.

For the molecule `Br.CC(C)CC(=O)N1CCN(C(=O)CCCCCN)CC1` [ENMD-547], on PAR-2 [1], the “antagonist activity on PAR-2 signaling” value is “extremely potent inhibitor”. The “inhibitory effect on signaling by ATP” value in experiment [2] is given as “no inhibitory effects”. Moreover, at PAR-1, the “inhibitory effect on signaling by PAR-1 (activation peptide SFLLRN)” value is reported as “no inhibitory effects”. For the same molecule, the “antitumor activity relative to the parental LIGK molecule” value with Lewis lung carcinoma is recorded as “approximately five fold”. Besides, in experiment [3], the “inflammation (arthritis, foot swelling)” value is recorded as “inhibited inflammation”.
As for LIGKV, in the experiment with PAR-2 [4], the “calcium mobilization / signaling activity” value is recorded as “Neither truncated molecule was able to induce calcium mobilization”. The “antagonist activity on PAR-2 signaling” value in the experiment with PAR-2 [1] is given as “demonstrated antagonist activity”.
“SLIAKV [alanine substituted SLIGKV peptide]”: the “calcium mobilization / signaling activity” value with PAR-2 [4] is “robust signaling activity”.
Take “SLIGKA [alanine substituted SLIGKV peptide]”: the “calcium mobilization / signaling activity” value with PAR-2 [4] was “robust signaling activity”.
The same measure, in the same setting: the entry for “SLIGKV (listed as Homo sapiens) [reference compound]” is “typical spike of calcium release followed by degradation of signal”.
Turning to LIGK [LIGK (SEQ ID NO:1)], the “IC50 of inhibition of PAR-2 signaling (calcium mobilization stimulated by SLIGKV)” value in experiment [5] is less than 500 µM.
